Results reported in patent US7318921B2, “Therapeutic compositions that alter the immune response” (AltaRex Medical Corp., priority 1996, dated 2008).

What was measured:
[1] = test system: CA125 specific mouse T-cells; assay: Proliferation of CA125 specific T-cells with stimulated peritoneal macrophages ([3H]-thymidine uptake); format: cell-based; settings: macrophages stimulated with agent, presented to CA125 specific mouse T-cells; 1 μug/ml of the antibody and 100 Units/ml CA125; mean of three experiments
Excerpt: Enhanced antigen-presentation of antigen-antibody complexes was attributed to facilitated antigen uptake via the Fcγ-receptor (macrophages, dendritic cells) or membrane-bound Ig (B cells) on professional antigen-presenting cells (APC). […] Accordingly, various professional APC can be involved in the preferential presentation of the CA125-MAb-B43.13 complex. We tested B cells with two different specificities as well as macrophages as APC: CA125-specific B cells (from mice immunized with CA125) and anti-MAb-B43.13-specific B cells (from mice immunized with MAb-B43.13). Normal B cells served as control. […] Enhanced presentation of immune complexes by macrophages and dendritic cells is mediated by preferential uptake via the FcγR. FIG. 4 confirms that CA125 is presented more efficiently by macrophages, if complexed with an antigen specific antibody.
Better cellular immune response was observed when the UV exposed antibody was presented in association with the antigen to T-cells. Thus, macrophages isolated from mouse peritoneal cavities were stimulated with native B43.13 or UV exposed B43.13 in association with CA125 and presented to CA125 specific mouse T-cells isolated from mice injected with CA125. Control experiments included stimulation of the macrophages without the antigen. […]

CA125 [2] = target: T1, CA125 (Homo sapiens, UniProt Q8WXI7); assay: Inhibition of binding of patients' anti-CA125 antibodies to CA125 (solid phase); classification Ab3/Ab1c; settings: inhibitor at 10500 U/ml
Method: Anti-CA 125 positive samples were tested for inhibition of their binding to CA 125 (solid phase) by CA 125, MAb-B43.13 scFv, MAb-B27.1 F(ab′), or MAb M11 F(ab′). Single chain MAb-B43.13, F(ab′) MAb-B27.1, and F(ab′) M11 were used in the inhibition studies to avoid non-specific inhibition of the Fc portion of the antibody and cross-reactivity due to HAMA. To be considered to be significant, inhibition had to be at least 15%.
Thus, if the patients serum contained anti-CA125 antibodies that were inhibitable by MAb-B43.13 only, it was classified as containing Ab3; those inhibitable by MAb-B27.1 were classified as Ab1c. In other words, injecting a binding agent such as an antibody against a single epitope on a multi-epitopic antigen leads to generation of a humoral and cellular response against a different epitope on the antigen.
Method: 86 ovarian cancer patients with active disease were tested for the presence of antibodies against CA125. None of the patients had antibodies against CA125 before injection of MAb-B43.13. The patients were injected with 2 mg of MAb-B43.13 at varying time intervals (e.g., see Table 5 for some of the patients). Sera from these patients were analyzed for the presence of human anti-CA125 antibodies by their ability to bind to the CA125 [R. Madiyalakan et al, Hybridoma, 14:199-203 1995)]. […]

CA125 [3] = target: T1, CA125; assay: in vitro studies, method not stated
FcγR = settings: complexed with anti-tetanus toxoid IgG; measured by TH cell activation; cited from earlier work

## CA125: soluble multi-epitopic tumor associated antigen of epithelial ovarian cancers
[1]
  STIMULATION INDEX: 2.76
CA125 [2]; anti-CA125 positive samples of patients injected with MAb-B43.13, positive = inhibition at least 15%
  Inhibition, No. of Positives/Total: 26/28
CA125 [2]; anti-CA125 positive samples
  Inhibition, positives (%): (92.8) %

## MAb-B43.13 (antibody)
CA125 [3]
  binding capacity (units of CA 125 per 1 ng of MAb-B43.13): 10

## tetanus toxoid
FcγR
  increase in processing and presentation of the antigen: 10-1000 -fold
